Test results from US20120027785A1.

T1: CdtA-CdtC heterodimer (wild-type CdtA-His6 and CdtC-His6)
T1 chain 1: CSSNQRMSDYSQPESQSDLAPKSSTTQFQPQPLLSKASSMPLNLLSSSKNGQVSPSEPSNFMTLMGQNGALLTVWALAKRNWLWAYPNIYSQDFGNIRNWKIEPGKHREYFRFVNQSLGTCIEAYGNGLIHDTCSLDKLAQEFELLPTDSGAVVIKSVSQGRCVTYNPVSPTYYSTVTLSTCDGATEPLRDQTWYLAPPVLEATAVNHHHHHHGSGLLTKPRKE
T1 chain 2: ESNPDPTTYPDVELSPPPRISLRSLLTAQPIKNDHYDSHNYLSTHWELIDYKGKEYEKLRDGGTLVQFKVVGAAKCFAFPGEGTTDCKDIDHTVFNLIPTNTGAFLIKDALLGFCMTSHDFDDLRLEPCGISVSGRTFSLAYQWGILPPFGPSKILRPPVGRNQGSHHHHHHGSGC


Assays:
[1] = molecular target: human CD133 (prominin-1) (human) (UniProt O43490); assay: flow cytometry on RPMI 2650 cells, directly PE-conjugated antibody
[2] = molecular target: T1, CdtA-CdtC heterodimer (wild-type …)

Molecule | median fluorescence (MF) [1] | DNA nicking activity of reconstituted heterotrimer preparations [2]
mouse anti-human CD133/1 MAb conjugated to PE (Miltenyi Biotec) (antibody) | 64.8 | 
CdtB/DNase I hybrid protein (from pETBDN2) (protein) NLSDFKVATWNLQGSSAVNESKWNINVRQLLSGEQGADILMVQEAGSLPSSAVRTSRVIQHGGTPIEEYTWNLGTRSRPNMVYIYYSRLDVGANRVNLAIVSRRQADEAFIVHSDSSVLQSRPAVGIRIGTDVFFTVHAAPGDAVAEIDALYDVYLDVQEKWGLEDVMLMGDFNAGCSYVRPSQWSSIRLWTSPTFQWLIPDSADTTATPTHCAYDRIVVAGMLLRGAVVPDSALPFNFQAANGLSDQLAQAISDHYPVEVMLKHHHHHHHMLEDPAANKAQKK |  | reconstituted heterotrimer preparations containing the CdtB/DNase I hybrid protein failed to convert supercoiled DNA to linear and relaxed forms
